For the assay, the target named is Frizzled-7 receptor, endogenous (rat (endogenous in fetal rat brain growth cone particles and hippocampal neurons)).

Bounds are passed on as bounds.

For the substance “Wingless-type family member 3A (recombinant mouse Wnt3a) (from UniProt P27467 19-352) (ligand)”, the percent of hippocampal neurons with an identifiable Tau-1 containing axon (stage 3) after 20 h with 1.35 nM Wnt3a was more than 55%.

(Values after article PMC3829478.)
